Results on five molecules are retold here after PMC9368758, “Cellular Redox Metabolism Is Modulated by the Distinct Localization of Cyclic Nucleotide Phosphodiesterase 5A Isoforms” (International Journal of Molecular Sciences, 2022).

Data set [1] deals with MmPDE5A2 (Mus musculus cGMP-specific phosphodiesterase 5A, isoform A2), produced in K. lactis CBS2359 transformed with p3XFlagPDE5A2 (Mus musculus). Briefly: SEC; purified protein (300 ug) on Superose 12 HR 10/30, 4 C, 0.20 mL/min, 20 mM HEPES pH 7.0, 1 mM EGTA, 5 mM beta-mercaptoethanol, 5 mM MgCl2, 100 mM NaCl, 2 mM PMSF, 0.05% Triton X-100; fractions tested for cGMP-hydrolysing activity and by native Western blot; column calibrated with MW markers. On the technique in general: Size exclusion chromatography separates by hydrodynamic size, large species first.

For data set [2] the target is unchanged. Briefly: native gel or EMSA; native PAGE, 5% non-denaturing gel, Tris/glycine pH 8.3, 4 C, 1.0 ug purified protein, Coomassie; pre-incubated at 30 C up to 3 h with or without DTT, cGMP, sildenafil or diamide.
For data set [3], the target named is MmPDE5A3 produced in the K. lactis ragx1 mutant (Mus musculus). The description is as above.
In data set [4] the target is MmPDE5A3 (Mus musculus cGMP-specific phosphodiesterase 5A, isoform A3), produced in K. lactis wild type strain CBS2359 (Mus musculus). Briefly: SEC; purified protein (300 ug) on Superose 12 HR 10/30, 4 C, 0.20 mL/min, 20 mM HEPES pH 7.0, 1 mM EGTA, 5 mM beta-mercaptoethanol, 5 mM MgCl2, 100 mM NaCl, 2 mM PMSF, 0.05% Triton X-100; fractions tested for cGMP-hydrolysing activity and by native Western blot; column calibrated with MW markers.

Data set [5] shares this target. The experiment in a line: native gel or EMSA; native PAGE, 5% non-denaturing gel, Tris/glycine pH 8.3, 4 C, 1.0 ug purified protein, Coomassie; pre-incubated at 30 C up to 3 h with or without DTT, cGMP, sildenafil or diamide. On the technique in general: A gel shift assay detects complexes by their altered migration in electrophoresis.
Data set [6] addresses MmPDE5A2 produced in the K. lactis ragx1 mutant (Mus musculus). Described as above.
Data set [7] deals with the molecule itself. Briefly: native gel or EMSA; native PAGE of K. lactis cell extracts with in-gel activity staining for G6PDH; cultures on various glucose concentrations, methylene blue, G418, ethanol; extracts also incubated overnight with NAD+ or NADP+.

Where “and” joins values, the source holds several entries; their conditions need not be identical. Equal values may be shown once.

By stoichiometry N is commonly meant a count of units in the complex or per binding partner. For the molecule “MmPDE5A2 (Mus musculus cGMP-specific phosphodiesterase 5A, isoform A2), produced in K. lactis CBS2359 transformed with p3XFlagPDE5A2 (enzyme)”, the stoichiometry N in data set [1] and in data set [2] was 2 throughout.
In data set [3], “MmPDE5A3 produced in the K. lactis ragx1 mutant (enzyme)” gave a stoichiometry N of 2.
Turning to “MmPDE5A3 (Mus musculus cGMP-specific phosphodiesterase 5A, isoform A3), produced in K. lactis wild type strain CBS2359 (enzyme)”, the stoichiometry N in data set [4] and in data set [5] was 2 in each case.
“MmPDE5A2 produced in the K. lactis ragx1 mutant (enzyme)” showed a stoichiometry N in data set [6] of 2.

B1: Glc-6-phosphate dehydrogenase (G6PDH) of Kluyveromyces lactis (enzyme, K. lactis (endogenous in CBS2359), UniProt P48828 1-497, looked up)
chain: MATQFDENTVITIFGASGDLSKKKTFPALFGLYREGYLNPTTKIIGYARSKLSNEDLREKVKPFLKKPNGAKDDAKVNEFLSMVSYHAGPYDSDEGYLELKKIIEEFEAEKKVDEPHRLFYLALPPSIFIDVCSKLKENLYTESGIQRVIVEKPFGHDLQSATELQEKLAPLFSEDELFRIDHYLGKEMVKNLLLMRFGNTFLNAAWNKENIQSVQVVFKEPFGTEGRGGYFDSIGIIRDVMQNHLLQVLTLLTMERPVSFDPESVRDEKVKVLKAFSPIDHDDILIGQYGRSVDGSKPSYLDDETVKEDSKCVTFAAIGFKIANERWDGVPIVMRAGKALNEGKVEIRIQFRRVASGMFTDIPNNELVIRIQPNEAIYLKCNAKTPGLANENQTTELDLTYSERYKNYWIPEAYESLIRDALLGDHSNFVRDDELDVSWKLFTPLLNYLEGPDGPQPKIYPYGCRSPDGLVEFLADHGYTFSKPGSYQWPVTTPKM
notes: glucose-6-phosphate 1-dehydrogenase, Kluyveromyces lactis, endogenous enzyme seen by in-gel activity staining; Seen as a slow (tetramer) and a faster (dimer) band; also called glucose 6-phosphate dehydrogenase; source: endogenous, K. lactis cell extracts
With B1, in data set [7], the “stoichiometry N” value is 4 and 2.
